Measurements taken from the supplement of paper PMC12855868.

B1: library; numbered along this chain (parent)
chain: MAAAGGARLLRAASAVLGGPAGRWLHHAGSRAGSSGLLRNRGPGGSAEASRSLSVSARARSSSEDKITVHFINRDGETLTTKGKVGDSLLDVVVENNLDIDGFGACEGTLACSTCHLIFEDHIYEKLDAITDEENDMLDLAYGLTDRSRLGCQICLTKSMDNMTVRVPETVADARQSIDVGKTS

Variants of: B1
Experiment: scaled log2 fold change in cell abundance, elesclomol vs control (0 = silent mean, 1 = nonsense mean) (scaled log2 ratio); higher = higher viability under elesclomol (loss of FDX1 cuproptosis function)
Details: glucose 10 mM
[1] = with ABC1 FDX1 KO, elesclomol 5 nM, 14 days
[2] = with HEK293T FDX1 KO, elesclomol 40 nM, 11 days
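Also: variant abundance is its share of total variant reads in each endpoint sample, from next-generation sequencing of the integrated ORF PCR-amplified out of genomic DNA.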

Variant	scaled log2 fold change [1]	scaled log2 fold change [2]
F119Q	0.852	0.755
F119S	1.07	0.993
F119H	0.658	-0.0181
F119M	0.178	0.132
F119C	0.133	0.831
F119V	-0.0745	1.48
F119E	1.04	1.21
F119N	0.967	0.538
F119G	1.05	0.397
F119W	0.0722	-0.0842
F119Y	0.389	0.17
F119R	1.09	0.953
F119K	1.05	1.21
F119P	0.974	0.628
F119I	0.0519	-0.0254
F119D	1.06	1.02
F119A	0.901	0.518
F119T	0.311	0.547
F119L	0.0116	–
L117Q	1.05	0.896
L117V	0.152	0.867
L117W	1.03	0.891
L117Y	1	1.02
L117N	1.04	0.559
L117M	0.167	-0.247

Variant	scaled log2 fold change [1]	scaled log2 fold change [2]
L117T	0.178	0.185
L117R	1.14	0.855
L117P	1.02	1.03
L117S	0.36	-1.36
L117K	1.07	1.03
H122F	-0.949	–
H122S	-0.554	–
H122D	-0.343	–
H122R	-0.313	0.00681
H122T	0.191	0.139
H122G	-1.06	–
H122L	-0.634	–
H122I	0.215	1.13
H122Q	-0.0669	0.352
H122P	-0.0781	-0.564
H122V	0.297	-0.437
H122K	-0.152	-0.221
H122M	0.0412	0.368
H122E	0.137	–
H122Y	-0.259	–
H122W	0.634	-0.608
H122N	0.564	0.129
H122C	-0.812	–
I123N	-0.867	-0.142
I123V	-0.0405	–

Variant	scaled log2 fold change [1]	scaled log2 fold change [2]
I123C	0.148	0.505
I123T	0.223	0.679
I123D	0.248	0.132
I123M	0.264	0.00397
I123R	-0.34	0.123
I123E	0.111	-0.217
I123Q	-0.0633	-0.755
I123G	0.293	–
I123F	-0.346	0.312
I123S	0.133	0.206
I123A	-0.0959	-0.0656
I123P	0.506	-0.674
I123L	-0.128	-0.00641
I123K	0.336	0.365
I123H	0.292	-0.438
D121P	-0.198	–
D121Y	-0.243	0.698
D121I	0.217	–
D121R	-0.0191	1.32
D121F	0.353	–
D121L	-0.202	-0.00537
D121V	0.222	0.458
D121G	0.178	-0.427
D121Q	0.169	0.0204
D121T	-0.0111	–

Variant	scaled log2 fold change [1]	scaled log2 fold change [2]
D121E	0.304	-0.162
D121H	-0.394	-0.25
D121S	-0.507	–
D121M	-0.556	1.79
D121A	-0.0978	0.0802
D121W	0.324	-0.123
D121N	-0.0427	–
D121C	-0.164	-0.257
I118H	0.249	0.918
I118F	-0.0055	-0.412
I118C	-0.313	-0.183
I118M	0.0783	0.694
I118E	-0.0205	-0.0505
I118G	0.403	-0.108
I118W	0.135	0.474
I118T	-0.289	0.934
I118L	0.0425	0.108
I118N	0.286	-0.696
I118V	-0.103	-0.548
I118S	0.159	-0.594
I118Q	0.0897	0.252
I118A	0.0431	-0.147
I118P	1.16	0.991
I118K	0.00843	0.202
I118R	-0.527	-0.461

Variant	scaled log2 fold change [1]	scaled log2 fold change [2]
I118D	0.0488	0.0453
I118Y	0.0377	-0.427
E120R	0.278	-0.473
E120L	0.202	0.102
E120P	0.108	0.193
E120D	0.203	0.978
E120C	0.227	-0.059
E120A	0.194	-0.0676
E120H	-0.0176	-0.794
E120S	0.0771	-1.62
E120M	-0.223	0.0763
E120K	0.0347	0.542
E120Y	0.267	-0.449
E120G	0.367	-0.0815
E120Q	-0.192	0.816
E120T	0.0538	-0.0827
E120W	0.298	-0.149
E120V	0.256	-0.849
E120N	0.109	0.835
E120I	-0.276	0.524
E120F	0.141	-0.0751
